Reference: publication PMC3784395, “Ectopic Expression of WUS in Hypocotyl Promotes Cell Division via GRP23 in Arabidopsis”

T1: GST-WUS (WUSCHEL) (UniProt Q9SB92 1-292)
T1 sequence: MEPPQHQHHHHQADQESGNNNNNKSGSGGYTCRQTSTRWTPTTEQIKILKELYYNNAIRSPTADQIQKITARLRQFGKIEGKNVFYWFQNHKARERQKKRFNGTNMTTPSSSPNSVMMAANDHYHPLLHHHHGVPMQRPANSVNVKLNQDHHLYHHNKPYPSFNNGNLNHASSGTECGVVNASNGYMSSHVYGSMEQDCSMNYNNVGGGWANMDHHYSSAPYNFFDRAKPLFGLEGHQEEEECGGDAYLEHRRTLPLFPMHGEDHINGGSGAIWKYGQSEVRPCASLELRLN

B1: GRP23 promoter mutant (both TAAT to GGGG) (dsDNA)
DNA 1: CATATATCTTGGGGACTGTGGGGGATCTTTCTTCAAAAAC
DNA 2: GTTTTTGAAGAAAGATCCCCCACAGTCCCCAAGATATATG
B2: GRP23 promoter probe wt (-748 to -709) (dsDNA)
DNA 1: CATATATCTTTAATACTGTTAATGATCTTTCTTCAAAAAC
DNA 2: GTTTTTGAAGAAAGATCATTAACAGTATTAAAGATATATG

Key:
GST-WUS (WUSCHEL) [1] = biological target: T1, GST-WUS (WUSCHEL); assay: competition; unlabeled mutant competitor up to 800x excess vs labeled N1; Lightshift Chemiluminescent EMSA kit (Pierce), per manufacturer; buffer, salt, pH and temperature not stated; settings: protein: recombinant; chain copies: 2; blunt
GST-WUS (WUSCHEL) [2] = biological target: T1, GST-WUS (WUSCHEL); assay: EMSA; Lightshift Chemiluminescent EMSA kit (Pierce), per manufacturer; buffer, salt, pH and temperature not stated; settings: protein: recombinant; chain copies: 2; label: 3' biotin on both strands (probe); blunt

Row | Binder | binding result (GST-WUS (WUSCHEL) [1]) | binding result (GST-WUS (WUSCHEL) [2])
1 | B1 | no binding | –
2 | B2 | – | binds
